Reference: US6001604

Target: SOD-proinsulin hybrid polypeptide expressed by plasmid pBAST-R (SOD-Insulin B chain-Lys-Arg-Insulin A chain hybrid polypeptide) (human)

human insulin generation after enzymatic cleavage (radioimmunoassay and RP-HPLC) (% of the theoretical yield): 80
Substance: trypsin (Sigma) (enzyme)
